# Measurements published in the DeepSol protein solubility set.
# Test: soluble on expression in E. coli; label from the status in PepcDB or PDB records
row,Sequence,soluble on expression in E. coli
1,MGSDKIHHHHHHISYPLPPEGSRLVGSAFTIAVPDNNTQPLESFAAQYGQGLSNMLEANPGVDVYLPRSGSTLTIPQQLILPDTVREGIVINVAEMRLYYYPPLGNSVEVLPIGIGQAGRETPRNWVTAVERKQEGPTWVPTANTRREYAKEGKTLPAMVPPGPDNPMGLYAIYIGRLYAIHGTNANFGIGLRVSQGCIRLRNDDIKFLFDNVPVGTRVQLIDQPVKYSVEPDGSHWLEVHEPLSRNRAEFESDRKVPLPMTSALRDFTQGPGVSPAQVEQTLQRRSGMPVNISATAAQGSL,not soluble
2,MDKKTACAHVAEPCEFSYSTRDAIIYALGVGARAKEDLCYVYENHEDFKVLPSYIVAPGFQAHTLMDWPGVEFDLQRVLHGEQYIEVYQPLSAEGKLKSEARVVDILDKGSGALILGNVTTYDENGKKIAMQQFSTFQTGSGNFGGDRTSPHEIKAATVPDRAPDAVIEQKTTVDQAALYRLGSGDMNPLHVDPEFAKMSGFKTPILHGLCSLGFATRHVIAAWAGNDSDKFKAIKVRFSSPVLPGQTLVTETWKNGKRIIFQMKVKETGKIVISNAFIDLHEASELPTVPIDLASKL,not soluble
3,MSLSQQQKQVQKLAMTQQLQQSIQILQFNTEELAAFVEAKALENPLIDLQVDTQYTTDFPITSRSYTNQDEENNYMNQIPDYHLSLFESLIDQIHLNYRDTYLRTLVLFLVEYIDVNGYLTISLEEAAVKTEASAIQMLDALTLLQQLDPAGVGARNLQECLMLQTERDDTAPNLAYILLEEEFDALVSRKWGPLAKKFGIELAEIQLIFDYIQTLSPAPGNIFDATEELYIRPDLTVRIKEDRIVVISNKAGRPTLNFQENYFKRMQETDDKEVQEYIKDKKNEFEWLERAVNQRGDTILRVGQEIVRRQEAFFLEADRPLKPMTLKEIADALSIHESTVSRAVNGKYLETTFGVFELRSFFSTSILSSEEDGEDVSTTMVKKQLQKLIDQEVKSKPLSDQKLVERLKDSGMEISRRTVAKYREALGIPSSSKRKRYEEGHHHHHH,soluble
4,MSQEALKAPVVVLGAGLASVSFVAELRQAGYQGLITVVGDEAERPYDRPPLSKDFMAHGDAEKIRLDCKRAPEVEWLLGVTAQSFDPQAHTVALSDGRTLPYGTLVLATGAAPRALPTLQGATMPVHTLRTLEDARRIQAGLRPQSRLLIVGGGVIGLELAATARTAGVHVSLVETQPRLMSRAAPATLADFVARYHAAQGVDLRFERSVTGSVDGVVLLDDGTRIAADMVVVGIGVLANDALARAAGLACDDGIFVDAYGRTTCPDVYALGDVTRQRNPLSGRFERIETWSNAQNQGIAVARHLVDPTAPGYAELPWYWSDQGALRIQVAGLASGDEEIVRGEVSLDAPKFTLIELQKGRIVGATCVNNARDFAPLRRLLAVGAKPDRAALADPATDLRKLAAAVAA,soluble
5,MGKRMTFDTAKSRFQEKFPHLELLEFSGIYKPSSVRCPTHGVVQLLYYDTAIKSKYGCPECGKLKMKENTPPQNQKPVSILDTATGETLTFPSVQAAAKALNTPYGSIRTKLDGRSNPDNLVCNRYKVLL,soluble
6,GPLGSMKPINIQDQFLNQIRKENTYVTVFLLNGFQLRGQVKGFDNFTVLLESEGKQQLIYKHAISTFAPQKNVQLELE,soluble
7,MGSDKIHHHHHHMNFVTTIGLEVHVELKTNSKIFSPSPVQFGSEPNANTNVIDWGYPGVLPTPNKGVVEAGIKAATALHAEIEHHTYFDRKNYFYPDNPKAYQITQHEKPIAHDGWIEIEVDGKKKKIGIEEMHIEEDAGKNTHENDYSYVDLNRQGTPLIEIVSKPDIASPEEAYAYCEALRQRIQFTGVSDVKMEEGSMRVDVNISIRPAGSDKYGVKTEMKNLNSFNYVRKSLEYEEQRQQQVLMAGGKIQQETRRFDETTGQTILMRVKEGSDDYRYFPEPDIPAVDIDDDWIASVKKTIPEMPGSRRERYINEFGLTAYDAGVLTQTKEMSDFFDATVAEGADPKLASNYLQGDVNAYLNEHKVDLLATDLTPTNLAGMIKMISDETISSKIAKKVFKAIMAGSEPVQWVNDKGLVQLSDPAKLQPIVDDVLDNNQQSIDDFKNGKDRAVGFLVGQIMKKTRGQANPKVVNQLLMTSLKAR,not soluble
8,SAESENVSNNISLYSEETVILDVKGKNKTDVIDEMIGILDKSGVLLDKKKFKEEILKREEISSTGFGMGIAIPHAKTDAVKVPRVAVGVSKEGFDFESEDGSLAHIIFMIAATDNGDNLHLKTLSQLSSKLMNEEFLNELLNSKTSREIVSKLNNEEIKSV,not soluble
9,MGSDKIHHHHHHMEGYLNSRLVRNAARVALVVAIPATLAGCGINTIPTQDEATKTAWAEVQNQYQRRADLIPNLVATVKGYAAQEKDVLTAVTEARASATQVKVDASTITDPAQFQKFAAAQDQLSGVLGRLMVIQEQYPDLKSNQNFLALQSQLEGTENRITIARRDYNETAQKYNTTLRTFPSLLWAKTLYSDQKPAQLFQASAAAQSAPTVDFSSPPTATPPKVQ,not soluble
10,SQRGVLEDEQMYQRCCNLFEKFFPSSSYRRPVGISSMVEAMVSRARIDARIDFESGRIKKEEFTEIMKICSTIEELRRQK,soluble
11,MKDQNGVASTDDSVLPSWSNPDVGQFIVSTYNEYEYKRIPFRELEFGCLLCRMRTFNHEGMKKHLRDHVVHKKSSCEHEKPGKTGIHHQVDKAGNGVMPENGQLVQCYIEIKLADCYTSWSNYESQNPIIFKIGFGEVIPGLDIGIPKMKVGEIATFHVSGKYGYGRAGFRGLIPRNASLTCKVRLFNCSWDSYAKIGVDRQILVQGDNVTKSKNGQTVTCHYVLILVDGTKIDSSRDRETPFKFKIGKGEVIKGWDQGVAQMSVKEKSKLTIAPAFGFEKGKLPAGIPA,not soluble
12,MLSFINKPRMESKMTIPELRELYQTQQLVEAIIEPSFQEGEWIVEFRHQMGGFVLLTDENGEECRYIDLDSASQSAMAVGFRQVRIENQ,not soluble
13,MLVLGSGGARGYAHIGVIEELEARGYEITCIAGCSMGSVIGGIYAAGKLREYREWVESLDYLDVLRLLDVSFRLGAIRGERVFGKIHEILGEVNIEDLSIPYTAVATDLTNQQEIWFQEGCLHQAMRASAAIPSLFTPVMQGSRMLVDGGLLNPLPIVPVV,soluble
14,MVMWVFGYGSLVWNPGFHYDEKVLGFIKGYKRVFDLACIDHRGTPEHPARTCTLEKAEEAICWGTAFCVRGGPEKERLAMEEDDPLKPAVTGVIVFTSTPDKVSNKYYLGPAPLEDMARFLSSHLAVILYIQRQIATANGPCGNNRDYLFLLEKAMHDIGFVVKGSDLDGFKRDIVFDVLSHFLFHTGHEEDYVIELANEVRKVLAESSTKKVTPVKESRASRVANKSKNNVPTAHQILPHHPEAVATTI,soluble
15,SLIENSHVKKDDIWPSGGQMTVKDLTAKYTEGGNAILENISFSISPGQRVGLLGRTGSGKSTLLSAFLRLLNTEGEIQIDGVSWDSITLEQWRKAFGVIPQKVFIFSGTFRKNLDPNAAHSDQEIWKVADEVGLRSVIEQFPGKLDFVLVDGGCVLSHGHKQLMCLARSVLSKAKILLLDEPSAHLDPVTYQIIRRTLKQAFADCTVILCEARIEAMLECDQFLVIEENKVRQYDSIQKLLNERSLFRQAISPSDRVKLFPHRNSSKCKSKPQIERETLVTMENVTAFWEEGGTPVLKDINFKIERGQLLAVAGSTGAGKTSLLMMIMGELEPSEGKIKHSGRISFCSQNSWIMPGTIKENIIFGVSYDEYRYRSVIKACQLEEDISKFAEKDNIVLGEGGITLSGGQRARISLARAVYKDADLYLLDSPFGYLDVLTEKEIFESCVCKLMANKTRILVTSKMEHLKKADKILILHEGSSYFYGTFSELQNLRPDFSSKLMG,soluble
16,MKRLWQHCHAATLKGGKYSIVEDAALVTDGPLIHWIGPRAELPPGDYAERIDLGGAWLTPGLIDCHTHAVFGGNRSGEFEQRLEGVSYAEIAAAGGGIASTVRATREASEEELLASARKRLEPLLRDGVTALEIKSGYGLDLASERKMLRVIRRLGERLPATVRSTCLAAHALPPEYAGRADDYIEHICSTMLPALAGEGLVDAVDAFCEHLAFSPAQVERVFIAARELGLPVKLHAEQLSSLHGSSLAARYRALSADHLEYMTEDDARAMGEAGTVAVLLPGAFYLLRETQLPPIDALRRHGVAMAIASDLNPGTSPALSLRLMLNMACTLFRLTPEETLAGVTLHAARALGLEASHGSLEVGKLADFVAWDIERPAELAYWLGGDLPKRVIRHAEEVYRG,not soluble
